Consider twelve molecules from patent US20190127480A1 (Regeneron, published 2019).

B1: BSPSMA/CD3-1200 (bispecific antibody, IgG4, V domains shown)
VH 1: QVQLVESGGGVVQPGRSLRLSCAASGFTFSSYGMHWVRQAPGKGLEWVAVISYAGNNKYYADSVKGRFTVSRDNSKKTLYLQMNSLRSEDTAVYYCAKDSYYDFLTDPDVLDIWGQGTMVTVSS
VH 2: EVQLVESGGGLVQPGRSLRLSCAASGFTFDDYSMHWVRQAPGKGLEWVSGISWNSGSIGYADSVKGRFTISRDNAKNSLYLQMNSLRAEDTALYYCAKDGSGYGKFYHYGLDVWGQGTTVTVSS
VL: DIQMTQSPSSLSASVGDSVTITCRASQSINNYLNWYQQKPGKAPKLLIYTASSLLSGVPSRFSGSGSGTDFTLTISGLHPEDFATYFCQQSFSTPPITFGQGTRLDIK
notes: modified (chimeric) IgG4 Fc domain; also called PSMA-VH-11810 x CD3-VH-G12
B2: BSPSMA/CD3-2100 (bispecific antibody, IgG4, V domains shown)
VH 1: B1 VH 1
VH 2: B1 VH 2 with I58K, H108Y, L111M
VL: B1 VL
notes: modified (chimeric) IgG4 Fc domain; also called PSMA-VH-11810 x CD3-VH-G21
B3: BSPSMA/CD3-1500 (bispecific antibody, IgG4, V domains shown)
VH 1: B1 VH 1
VH 2: B1 VH 2 with I58K, H108Y
VL: B1 VL
notes: modified (chimeric) IgG4 Fc domain; also called PSMA-VH-11810 x CD3-VH-G15
B4: BSPSMA/CD3-1900 (bispecific antibody, IgG4, V domains shown)
VH 1: B1 VH 1
VH 2: B1 VH 2 with L111M
VL: B1 VL
notes: modified (chimeric) IgG4 Fc domain; also called PSMA-VH-11810 x CD3-VH-G19
B5: BSPSMA/CD3-1600 (bispecific antibody, IgG4, V domains shown)
VH 1: B1 VH 1
VH 2: B1 VH 2 with I58K, L111M
VL: B1 VL
notes: modified (chimeric) IgG4 Fc domain; also called PSMA-VH-11810 x CD3-VH-G16
B6: H1H5778P (antibody, human IgG1, V domains shown)
VH: EVQLVESGGGLVQPGRSLRLSCVASGFTFADFTMHWVRQAPGKGLEWVSGISWNSNSIDYADSVKGRFTISRDNAKKSLFLQMSSLRAEDTALYYCVKDRSGYSRFYYGMDVWGQGTTVTVSS
VL: EIVMTQSPATLSVSPGERAILSCRASQNINSNLAWYQQKPGQAPRLLIYGASTRATGVPARFSGSGSGTEFTLTIRSLQSEDFAVYYCQQYYNWPITFGHGTRLEIK
notes: H1H: human IgG1 Fc
B7: H1H5771P (antibody, human IgG1, V domains shown)
VH: EVQLVESGGGLVQPGRSLRLSCAASGFSFDNYAMHWVRQAPGQGLEWVSGISWNSGSRDYADSVKGRFTISRDNARNSLFLQMNSLSNEDTAMYYCAKDKSGYGSYFYGMDVWGQGTTVTVSS
VL: EIVLTQSPGTLSLSPGDRATLSCRASQSIRNIYLAWYQQKPGQAPRLLIHGASTRATGIPDRFSGSGSGTDFTLTISRLEPEDFAVYYCQQRVSLPYTFGQGTKLEIK
B8: H1H5772S (antibody, human IgG1, V domains shown)
VH: B7 VH with E1Q, N31D, S55G, S87F, N88T, M93L
VL: B7 VL with T10I, L95S
notes: H1H: human IgG1 Fc; also called H1H5772P
B9: H1H5780P (antibody, human IgG1, V domains shown)
VH: EVQLVESGGGLVQPGRSLRLSCAASGFTFDDYAMHWVRQAPGKGLEWVSGISWNGGSKDYADSVKGRFTISRDNTRNSLSLQMNSLRIEDTALYYCAKDKSGYGSFYYGLDVWGQGTTVTVSS
VL: B7 VL with N31S, L95S
notes: H1H: human IgG1 Fc
B10: H1H5764P (antibody, human IgG1, V domains shown)
VH: QVQLVESGGGVVQPGRSLRLSCAASGFTFRSFGMHWVRQAPGKGLEWVAVISYDGNYKYYADSVKGRFTISRDNSKNTLYLQMNSLRAEDTAVHYCAKGAMVRGVPYNFYYGMDVWGQGTTVTVSS
VL: DIQMTQSPSSLSASVGDRVTITCRASQVIRNDLGWYQQKPGKAPKRLIYAASSLQSGIPSRFSGSGSGTEFTLTISSLQPEDFATYYCLQHNSYPYTFGQGTKLEIK
notes: H1H: human IgG1 Fc
B11: H1H5769P (antibody, human IgG1, V domains shown)
VH: B9 VH with A33T, A40V, V48I, G55S, K58M, T75A, S80F, L86V, I88T, L110M
VL: B7 VL with I29V, R30S, N31S, V93A, S94H, L95S
B12: H1H5761P (antibody, human IgG1, V domains shown)
VH: B10 VH with R30S, F32Y, N56S, Y57N, N74Y, H94F, F109Y
VL: B10 VL with V28G, Y36F, I58V

Positions count from the first letter of the chain named.

T3 sequence (Q04609 whole entry): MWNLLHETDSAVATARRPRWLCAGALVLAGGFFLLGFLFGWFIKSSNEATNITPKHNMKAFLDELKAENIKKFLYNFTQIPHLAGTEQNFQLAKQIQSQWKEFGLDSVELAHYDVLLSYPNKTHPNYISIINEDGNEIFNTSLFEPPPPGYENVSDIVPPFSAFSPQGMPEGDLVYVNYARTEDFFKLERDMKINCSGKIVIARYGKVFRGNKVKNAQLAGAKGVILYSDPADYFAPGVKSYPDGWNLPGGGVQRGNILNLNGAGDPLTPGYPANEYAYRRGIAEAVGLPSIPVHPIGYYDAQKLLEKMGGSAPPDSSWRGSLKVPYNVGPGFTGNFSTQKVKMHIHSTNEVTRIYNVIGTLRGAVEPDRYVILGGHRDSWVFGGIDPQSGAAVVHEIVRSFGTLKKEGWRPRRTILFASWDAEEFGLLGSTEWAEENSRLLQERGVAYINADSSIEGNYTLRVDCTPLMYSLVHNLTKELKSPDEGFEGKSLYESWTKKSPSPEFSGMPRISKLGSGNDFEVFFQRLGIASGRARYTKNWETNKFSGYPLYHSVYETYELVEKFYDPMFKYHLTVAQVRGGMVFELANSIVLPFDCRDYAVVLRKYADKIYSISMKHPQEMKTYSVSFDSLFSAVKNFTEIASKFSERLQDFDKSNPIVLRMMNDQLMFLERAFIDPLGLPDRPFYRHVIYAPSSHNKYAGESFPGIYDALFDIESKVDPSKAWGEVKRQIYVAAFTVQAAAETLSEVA
T1 sequence (P07766 23-207 limits assumed, chain 1 of 2): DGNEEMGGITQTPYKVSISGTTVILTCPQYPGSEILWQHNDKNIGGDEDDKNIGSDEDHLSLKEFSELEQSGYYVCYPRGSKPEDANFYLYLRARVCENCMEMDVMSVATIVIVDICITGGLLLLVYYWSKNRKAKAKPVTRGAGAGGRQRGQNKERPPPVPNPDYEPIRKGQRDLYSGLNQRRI
T1 sequence (P04234 22-171 limits assumed, chain 2 of 2): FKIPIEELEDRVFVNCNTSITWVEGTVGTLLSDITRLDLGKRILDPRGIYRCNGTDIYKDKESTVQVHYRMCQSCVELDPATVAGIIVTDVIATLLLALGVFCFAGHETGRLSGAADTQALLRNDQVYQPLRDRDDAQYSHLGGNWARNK

One experiment has as its target T1, human CD3 on CD3-expressing cells (Jurkat, human T cells) (human, UniProt P07766 23-207; P04234 22-171).
T1 construct: On cells CD3 stands within the T cell receptor complex (also gamma and zeta chains); also called human CD3 expressing Jurkat cells
Briefly: FACS on Jurkat cells. The method, then: (§1) Briefly, 2×10⁵ cells/well of human CD3-expressing Jurkat, cynomolgus T, or human PSMA-specific expressing cells were incubated with a serial dilution of bispecific antibodies for 30 min at 4° C. After incubation, cells were washed and a goat F(ab′)₂ anti-human Fcγ PE labeled secondary (Jackson Immunolabs) was added to the cells for an additional 30 min. Next, cells were washed, re-suspended in cold PBS+1% BSA and analyzed via flow cytometry on a BD FACS Canto II.
(§2) For FACS analysis, cells were gated by forward scatter height vs. forward scatter area for single events selection, followed by side and forward scatters. The EC₅₀ for cell binding titration was determined using Prism software. Values were calculated using 4-parameter non-linear regression analysis.
The term EC50 denotes the concentration that produces a half-maximal response. Regarding B1, the EC50 came out at 47.2 nM.

Consider B2, for which a half-maximal effect (EC50) was put at 106 nM.

B3 displayed an EC50 of 93 nM.

As to B4, a half-maximal response (EC50) required 60.7 nM.

B5 displayed an EC50 of 56.8 nM.

For a further experiment, the target named is T2, human CD3 expressed on cells (Jurkat cells; human T-cells of PBMC) (human, UniProt P09693 23-182; P20963 22-164). Briefly: cell-based or functional assay.
T2 sequence (chain, as listed by the source, chain 1 of 4): as the sequence (P07766 23-207 limits assumed, chain 1 of 2) above
T2 sequence (chain, as listed by the source, chain 2 of 4): as the sequence (P04234 22-171 limits assumed, chain 2 of 2) above
T2 sequence (P09693 23-182, chain 3 of 4): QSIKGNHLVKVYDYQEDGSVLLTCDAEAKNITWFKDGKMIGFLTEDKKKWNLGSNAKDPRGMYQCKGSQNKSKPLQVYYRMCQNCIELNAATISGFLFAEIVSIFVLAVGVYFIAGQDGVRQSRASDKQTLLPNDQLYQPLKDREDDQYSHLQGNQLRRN
T2 sequence (P20963 22-164, chain 4 of 4): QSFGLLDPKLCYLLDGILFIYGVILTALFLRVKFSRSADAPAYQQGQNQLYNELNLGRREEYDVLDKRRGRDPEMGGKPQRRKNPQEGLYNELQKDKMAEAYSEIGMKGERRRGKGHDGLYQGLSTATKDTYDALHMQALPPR
With B6, the “EC50 [M] hPBMC Proliferation” value stood at 5.04e-12 M.

Regarding B7, the “EC50 [M] hPBMC Proliferation” value came to 6.35e-12 M.

For B8, the “EC50 [M] hPBMC Proliferation” value turned out to be 4.42e-12 M.

For B9, the “EC50 [M] hPBMC Proliferation” value is 3.44e-12 M.

On to B10, for which the “EC50 [M] hPBMC Proliferation” value amounted to 3.27e-13 M.

For another experiment, the target named is cynomolgus monkey CD3 expressed on monkey T-cells (PBMCs) (cynomolgus monkey, UniProt Q95LI5 22-198; Q95LI8 22-171). Briefly: cell-based or functional assay.
cynomolgus monkey CD3 expressed on monkey T-cells (PBMCs), sequence (Q95LI5 22-198, chain 1 of 2): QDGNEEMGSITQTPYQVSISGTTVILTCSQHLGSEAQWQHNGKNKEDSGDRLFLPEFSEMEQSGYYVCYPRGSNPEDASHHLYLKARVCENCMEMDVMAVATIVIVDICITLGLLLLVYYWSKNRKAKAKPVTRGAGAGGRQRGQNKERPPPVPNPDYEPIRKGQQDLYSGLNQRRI
cynomolgus monkey CD3 expressed on monkey T-cells (PBMCs), sequence (Q95LI8 22-171, chain 2 of 2): as the sequence (P04234 22-171 limits assumed, chain 2 of 2) above, with I5V, N15K, I20V, S32T, D33N, I34N, T64A, S74N, V83L, H141R counted along it
With B6, the “EC50 [M] mfPBMC Proliferation” value stood at 5.93e-13 M.

Regarding B11, the “EC50 [M] mfPBMC Proliferation” value was 8.33e-13 M.

For B7, the “EC50 [M] mfPBMC Proliferation” value is 2.74e-12 M.

On to B8, for which the “EC50 [M] mfPBMC Proliferation” value is 1.47e-12 M.

B9: the “EC50 [M] mfPBMC Proliferation” value is 3.13e-13 M.

As to B12, the “EC50 [M] mfPBMC Proliferation” value turned out to be 2.81e-09 M.

Turning to B10, the “EC50 [M] mfPBMC Proliferation” value stood at 4.06e-10 M.

In a further experiment the target is T2, human CD3 expressed on cells (Jurkat …). Briefly: cell-based or functional assay. The source holds these as a separate data set.
For the molecule B6, the “U937 Cytotoxicity Human T-cells” value stood at 0.341 pM.

B8: the “U937 Cytotoxicity Human T-cells” value was 0.689 pM.

On to B9, for which the “U937 Cytotoxicity Human T-cells” value came out at 4.03 pM.

The next experiment has as its target T3, human PSMA on PSMA-expressing cells (human, UniProt Q04609 1-750).
T3 construct: Cell line is named under assay or readout in each row; also called B16F10.9/hPSMA; B16F10.9/PSMA
In words: FACS on B16F10.9/PSMA cells. The method, then: as §1, §2
Consider B1, for which the EC50 stood at 1.16 nM.

Regarding B2, it took 1.14 nM to reach a half-maximal effect (EC50).

In turn, B3 came in with an EC50 of 1.21 nM.

On to B4, for which the EC50 worked out at 1.35 nM.

B5 came in with an EC50 of 1.03 nM.

A further experiment addresses T2, human CD3 expressed on cells (Jurkat …). Briefly: FACS titration on Jurkat cells (CD3+ human T-cell line). The procedure: FACS data was acquired using the following protocol: Cells at 2×10⁵ per well were incubated with serially diluted antibodies for 30 min on ice. Post incubation, cells were washed and secondary antibody was added and incubated for an additional 30 minutes. After incubation, cells were washed, re-suspended in cold PBS containing 1% BSA and analyzed by flow cytometry with viable Jurkat cells gated by side and forward scatters. The EC₅₀s for cell binding titration were determined using Prism software with values calculated using a 4-parameter non-linear regression analysis.
B6 showed an EC50 of 0.685 nM.

For B8, the EC50 stood at 0.664 nM.

Turning to B9, the EC50 was 0.762 nM.

On to B10, for which a half-maximal effect (EC50) was put at 0.88 nM.

For another experiment, the target named is T4, soluble heterodimeric hCD3ε/δ.mFc protein (human).
T4 construct: also called soluble human CD3; soluble heterodimeric CD3 protein
T4 chain 1: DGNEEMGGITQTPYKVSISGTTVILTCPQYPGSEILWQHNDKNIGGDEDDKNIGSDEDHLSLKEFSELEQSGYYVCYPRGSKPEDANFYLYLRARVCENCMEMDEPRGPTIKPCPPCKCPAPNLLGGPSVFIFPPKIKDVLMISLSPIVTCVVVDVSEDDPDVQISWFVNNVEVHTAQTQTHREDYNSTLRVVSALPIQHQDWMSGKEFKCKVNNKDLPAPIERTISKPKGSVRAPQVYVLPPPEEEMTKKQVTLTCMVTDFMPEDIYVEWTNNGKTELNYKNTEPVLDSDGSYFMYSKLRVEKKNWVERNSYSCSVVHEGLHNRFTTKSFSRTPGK
T4 chain 2: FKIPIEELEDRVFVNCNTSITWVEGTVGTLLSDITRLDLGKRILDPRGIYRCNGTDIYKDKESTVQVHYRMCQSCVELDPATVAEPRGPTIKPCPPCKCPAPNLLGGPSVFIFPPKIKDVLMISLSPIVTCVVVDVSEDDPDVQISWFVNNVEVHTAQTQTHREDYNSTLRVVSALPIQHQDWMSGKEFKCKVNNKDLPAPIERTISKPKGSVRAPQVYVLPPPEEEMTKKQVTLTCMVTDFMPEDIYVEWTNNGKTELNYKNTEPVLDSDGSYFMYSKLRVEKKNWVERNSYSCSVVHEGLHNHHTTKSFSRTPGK
In words: SPR MASS-1, 37 C, antigen-capture (hCD3ε/δ.mFc captured), antibody injected. The method, then:
Measurements were conducted on a Sierra Sensors MASS-1 instrument.
In the antigen-capture format, the MASS-1 high-density amine sensor surface was derivatized with a goat anti-mouse IgG2a polyclonal antibody (Southern Biotech). Soluble heterodimeric CD3 protein was captured and the respective antibodies were injected over the captured antigen.
Kinetic association (kₐ) and dissociation (kd) rate constants were determined by processing and fitting the data to a 1:1 binding model using MASS-1 AnalyserR2 curve fitting software. Binding dissociation equilibrium constants (KD) and dissociative half-lives (t_{1/2}) were calculated from the kinetic rate constants as: KD (M)=kd/kₐ; and t_{1/2} (min)=(ln 2/(60*kd).
One may read the Kd as the free concentration of one partner at which half of the binding sites on the other are occupied at equilibrium, for simple one-to-one binding. As a reminder, the koff is the first-order rate constant of dissociation. What is called kon is the second-order rate constant of association. Consider B1, for which binding was characterised by a dissociation constant (Kd) of 64.2 nM, the “T½” value is 4.7 min, the koff was 0.00247 s⁻¹ and the kon was found to be 38500 M⁻¹ s⁻¹.

Take B2: the Kd was determined as 77.5 nM, the “T½” value stood at 4.9 min, the koff was determined as 0.00234 s⁻¹ and the kon was determined as 30200 M⁻¹ s⁻¹.

In the case of B3, the Kd turned out to be 82.9 nM, the “T½” value worked out at 1.9 min, the koff came to 0.00611 s⁻¹ and the kon is 73600 M⁻¹ s⁻¹.

In the case of B4, the Kd was found to be 115 nM, the “T½” value turned out to be 2.3 min, the koff came to 0.00509 s⁻¹ and the kon amounted to 44300 M⁻¹ s⁻¹.

With B5, the Kd amounted to 37.8 nM, the “T½” value was 4.7 min, the koff was 0.00243 s⁻¹ and the kon is 64300 M⁻¹ s⁻¹.
